Source: publication PMC9537944, “eIF4G1 N-terminal intrinsically disordered domain is a multi-docking station for RNA, Pab1, Pub1, and self-assembly” (Frontiers in Molecular Biosciences, 2022)

T1: eIF4G1 1-82 (Saccharomyces cerevisiae, UniProt P39935 1-82)
T1 sequence: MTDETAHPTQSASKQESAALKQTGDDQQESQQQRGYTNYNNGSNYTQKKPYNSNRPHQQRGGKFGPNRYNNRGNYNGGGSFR


Experiments:
[1] = biological target: the molecule itself; experiment: NMR paramagnetic relaxation enhancement (intermolecular PRE); 15N-labelled wild-type eIF4G1 1-249 mixed 1:1 with TEMPO spin-labelled eIF4G1 1-249 Q109C at natural isotopic abundance; intensity ratios of 1H-15N HSQC peaks, oxidised against ascorbate-reduced label; 25 mM potassium phosphate pH 6.5, 25 mM NaCl, 1 mM DTT
[2] = biological target: T1, eIF4G1 1-82; experiment: NMR (1H-15N HSQC titration); shifts centered at R34, R55, G65; new Arg side-chain NeHe signal; NMR: 25 mM potassium phosphate pH 6.5, 25 or 150 mM NaCl, 1 mM DTT, 10% D2O, 25 C, 800 MHz (general NMR conditions; not stated specifically for RNA titrations); conditions: protein: recombinant; tags: N-terminal gs left after TEV cleavage of TrxA-6xHis; single strand

Binder | binding result [1] | binding result [2]
eIF4G1_(1-249), N-terminal intrinsically disordered region of eIF4G1 (domain or fragment, Saccharomyces cerevisiae, UniProt P39935 1-249, looked up, 15N-labelled where it was the observed partner; Minor isoaspartate forms (12%-14%) are reported at positions 41 and 76; In the intermolecular PRE experiment the second copy was the Q109C mutant carrying a TEMPO spin label; also called eIF4G1 IDR; not shown: thioredoxin A, N-terminal, cleaved; 6xHis, internal (between thioredoxin A and the TEV site), cleaved) MTDETAHPTQSASKQESAALKQTGDDQQESQQQRGYTNYNNGSNYTQKKPYNSNRPHQQRGGKFGPNRYNNRGNYNGGGSFRGGHMGANSSNVPWTGYYNNYPVYYQPQQMAAAGSAPANPIPVEEKSPVPTKIEITTKSGEHLDLKEQHKAKLQSQERSTVSPQPESKLKETSDSTSTSTPTPTPSTNDSKASSEENISEAEKTRRNFIEQVKLRKAALEKKRKEQLEGSSGNNNIPMKTTPENVEEK | binds | –
AAAAAAAAAAAAAA (ssRNA) [A14] | – | binds
